Assay results from patent US20140087995A1 (published 2014).
Values belong to the binder of their own block, whether it stands above or below them. Numbered stars: 1 amine (or outer) side, 2 acyl side, 3 side chain; on linkers, the order of the positions; unused ones are H or OH. Bridge positions count the residues as written; N and C are the ends. Square brackets hold non-standard residues; d marks the D form. Side chains are listed from the residue outwards. Ends that are not written are not given here. * marks the point of attachment. C20 diacid = O=C(O)CCCCCCCCCCCCCCCCCCC(=O)*; γGlu = O=C(O)[C@H](CCC(=O)[*:2])N[*:1]; AEEA = NCCOCCOCC(=O)O

What was measured:
[1] = target: T1, human calcitonin receptor (human, UniProt P30988 25-474); assay: ratio IC50 hCTR / IC50 hAmylin-R (reference: human amylin receptor), SPA competition assays
T1 construct: whole, on cells; Assay used cell membranes, not intact cells; also called hCTR; hCT
T1 sequence (looked up): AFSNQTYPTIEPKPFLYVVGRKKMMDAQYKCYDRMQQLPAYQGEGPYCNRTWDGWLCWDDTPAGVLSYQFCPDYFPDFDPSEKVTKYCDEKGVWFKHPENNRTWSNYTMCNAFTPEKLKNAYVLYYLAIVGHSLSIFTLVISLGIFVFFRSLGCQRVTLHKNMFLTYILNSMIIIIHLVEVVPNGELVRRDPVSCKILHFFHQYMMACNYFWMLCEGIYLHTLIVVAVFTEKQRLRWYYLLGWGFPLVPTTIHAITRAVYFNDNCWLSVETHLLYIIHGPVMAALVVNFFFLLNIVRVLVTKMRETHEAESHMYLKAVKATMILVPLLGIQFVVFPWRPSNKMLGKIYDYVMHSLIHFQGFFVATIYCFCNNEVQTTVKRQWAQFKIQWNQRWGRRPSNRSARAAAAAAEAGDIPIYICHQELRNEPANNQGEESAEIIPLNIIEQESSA
Description: The resulting pellet was resuspended, homogenized and centrifuged (20.000 rpm, 15 min) in a buffer containing 20 mM Na-HEPES and 0.1 mM EDTA (pH 7.4, buffer 2). The resulting pellet was resuspended in buffer 2 and protein concentration was measured (BCA protein Assay, Pierce). The homogenate was kept cold during the whole procedure. The membranes were kept at −80° C. until use. The assay was performed in a 384 well Optiplate (PerkinElmer) in a total volume of 40 ul. Membranes were mixed with SPA beads. Final concentration of membranes 35 ng/μL final and SPA beads was 0.05 mg/well. Test-compounds were dissolved in DMSO and further diluted in assay buffer (50 mM Hepes, pH 7.4, 1 mM CaCl2, 5 mM MgCl₂, 0.1% OA and 0.02% Tween20). […] The final mixture was incubated with shaking at 400 rpm for 120 min at 25° C. prior to centrifugation (1500 rpm, 10 min). Samples were analyzed on TopCounter™ (Packard). The IC₅₀ was calculated using (one site binding competition analysis) GraphPad Prism5 as a measure of receptor affinity.
Membranes were prepared in the following way; the cells were rinsed with PBS and incubated with Versene for approximately 5 min before harvesting. The cells were flushed with PBS and the cell-suspension was centrifuged for 5 min at 1000 rpm. Cells were homogenized (Ultrathurrax) in a buffer containing 20 mM Na-HEPES and 10 mM EDTA (pH 7.4) and centrifuged at 20.000 rpm for 15 min. The resulting pellet was resuspended, homogenized and centrifuged (20.000 rpm, 15 min) in a buffer containing 20 mM Na-HEPES and 0.1 mM EDTA (pH 7.4, buffer 2). The resulting pellet was resuspended in buffer 2 and protein concentration was measured (BCA protein Assay, Pierce). The homogenate was kept cold during the whole procedure. The membranes were kept at −80° C. until use. Assay was performed in a 384 well Optiplate (PerkinElmer) in a total volume of 40 ul. Membranes were mixed with SPA beads.

[2] = target: T1, human calcitonin receptor; assay: SPA competition with 125I-calcitonin on membranes of BHK cells with human calcitonin receptor (Assay VII)
Description: Membranes were prepared in the following way; the cells were rinsed with PBS and incubated with Versene for approximately 5 min before harvesting. The cells were flushed with PBS and the cell-suspension was centrifuged for 5 min at 1000 rpm. Cells were homogenized (Ultrathurrax) in a buffer containing 20 mM Na-HEPES and 10 mM EDTA (pH 7.4) and centrifuged at 20.000 rpm for 15 min. The resulting pellet was resuspended, homogenized and centrifuged (20.000 rpm, 15 min) in a buffer containing 20 mM Na-HEPES and 0.1 mM EDTA (pH 7.4, buffer 2). The resulting pellet was resuspended in buffer 2 and protein concentration was measured (BCA protein Assay, Pierce). The homogenate was kept cold during the whole procedure. The membranes were kept at −80° C. until use. Assay was performed in a 384 well Optiplate (PerkinElmer) in a total volume of 40 ul. Membranes were mixed with SPA beads. Final concentration of membranes 35 ng/μL final and Final concentration of SPA beads was 0.05 mg/well. Test-compounds were dissolved in DMSO and further diluted in assay buffer (50 mM Hepes, pH 7.4, 1 mM CaCl2, 5 mM MgCl₂, 0.1% OA and 0.02% Tween20). […] The final mixture was incubated for 120 min with shaking at 400 rpm at 25° C. prior to centrifugation (1500 rpm, 10 min). Samples were analyzed on TopCounter™ (Packard). The […] was calculated using (one site binding competition analysis) GraphPad Prism5 as a measure of receptor affinity.

[3] = target: T2, human amylin receptor (amylin 3(a) receptor: human calcitonin receptor with RAMP-3) (human, UniProt P30988 25-474; O60896 24-148); assay: SPA competition with 125I-rat amylin on membranes of BHK cells with human calcitonin receptor and RAMP-3 (Assay V)
T2 construct: whole, on cells; Assay used cell membranes of the Amylin 3(a)/CRE-luc BHK cells, not intact cells; also called hAmylin-R; hAmylinR
T2 sequence (looked up) 1: T1 sequence (looked up)
T2 sequence (looked up) 2: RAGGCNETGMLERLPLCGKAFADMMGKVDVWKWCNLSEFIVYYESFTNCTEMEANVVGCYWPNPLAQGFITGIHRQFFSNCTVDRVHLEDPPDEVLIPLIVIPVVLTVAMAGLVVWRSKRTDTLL
Description: The binding assay was performed using scintillation proximity assay (SPA) beads (RPNQ0001) from PerkinElmer and cell membranes from the Amylin 3(a)/CRE-luc cells (as described in Assay (II)) were used. Membranes were prepared in the following way; the cells were rinsed with PBS and incubated with Versene for approximately 5 min before harvesting. The cells were flushed with PBS and the cell-suspension was centrifuged for 5 min at 1000 rpm. Cells were homogenized (ultrathurrax) in a buffer containing 20 mM Na-HEPES and 10 mM EDTA (pH 7.4) and centrifuged at 20.000 rpm for 15 min. The resulting pellet was resuspended, homogenized and centrifuged (20.000 rpm, 15 min) in a buffer containing 20 mM Na-HEPES and 0.1 mM EDTA (pH 7.4, buffer 2). The resulting pellet was resuspended in buffer 2 and protein concentration was measured (BCA protein Assay, Pierce). The homogenate was kept cold during the whole procedure. The membranes were kept at −80° C. until use. The assay was performed in a 384 well Optiplate (PerkinElmer) in a total volume of 40 ul. Membranes were mixed with SPA beads. Final concentration of membranes 35 ng/μL final and SPA beads was 0.05 mg/well. Test-compounds were dissolved in DMSO and further diluted in assay buffer (50 mM Hepes, pH 7.4, 1 mM CaCl2, 5 mM MgCl₂, 0.1% OA and 0.02% Tween20). […] The final mixture was incubated with shaking at 400 rpm for 120 min at 25° C. prior to centrifugation (1500 rpm, 10 min). Samples were analyzed on TopCounter™ (Packard). The IC₅₀ was calculated using (one site binding competition analysis) GraphPad Prism5 as a measure of receptor affinity.

Ratio hCT/hAmylin binding [1]: 74.1
IC50 [2]: 6.74 nM
IC50 [3]: 0.091 nM
B1: N^ε1-[2-[2-[2-[[2-[2-[2-[[(4S)-4-carboxy-4-(19-carboxynonadecanoylamino)butanoyl]amino]ethoxy]ethoxy]acetyl]amino]ethoxy]ethoxy]acetyl]-[Arg17,Pro21,Pro27,Pro34 … (peptide)
peptide: K([AEEA-AEEA-γGlu-C20 diacid])CNTATCATQRLANFLRHSSPNFGAIPSSTNVGPNTY-NH2
modifications: disulfide 2-7; N-terminus assumed
SMILES: CC[C@H](C)[C@H](NC(=O)[C@H](C)NC(=O)CNC(=O)[C@H](Cc1ccccc1)NC(=O)[C@H](CC(N)=O)NC(=O)[C@@H]1CCCN1C(=O)[C@H](CO)NC(=O)[C@H](CO)NC(=O)[C@H](Cc1c[nH]cn1)NC(=O)[C@H](CCCNC(=N)N)NC(=O)[C@H](CC(C)C)NC(=O)[C@H](Cc1ccccc1)NC(=O)[C@H](CC(N)=O)NC(=O)[C@H](C)NC(=O)[C@H](CC(C)C)NC(=O)[C@H](CCCNC(=N)N)NC(=O)[C@H](CCC(N)=O)NC(=O)[C@@H](NC(=O)[C@H](C)NC(=O)[C@@H]1CSSC[C@H](NC(=O)[C@@H](N)CCCCNC(=O)COCCOCCNC(=O)COCCOCCNC(=O)CC[C@H](NC(=O)CCCCCCCCCCCCCCCCCCC(=O)O)C(=O)O)C(=O)N[C@@H](CC(N)=O)C(=O)N[C@@H]([C@@H](C)O)C(=O)N[C@@H](C)C(=O)N[C@@H]([C@@H](C)O)C(=O)N1)[C@@H](C)O)C(=O)N1CCC[C@H]1C(=O)N[C@@H](CO)C(=O)N[C@@H](CO)C(=O)N[C@H](C(=O)N[C@@H](CC(N)=O)C(=O)N[C@H](C(=O)NCC(=O)N1CCC[C@H]1C(=O)N[C@@H](CC(N)=O)C(=O)N[C@H](C(=O)N[C@@H](Cc1ccc(O)cc1)C(N)=O)[C@@H](C)O)C(C)C)[C@@H](C)O
notes: also called compound 98

Ratio hCT/hAmylin binding [1]: 101
IC50 [2]: 12 nM
IC50 [3]: 0.119 nM
B2: N^ε1-[2-[2-[2-(19-carboxynonadecanoylamino)ethoxy]ethoxy]acetyl]-[Arg17,Pro21,Pro27,His34]-h-amylin (peptide)
peptide: K([AEEA-C20 diacid])CNTATCATQRLANFLRHSSPNFGAIPSSTNVGHNTY-NH2
modifications: disulfide 2-7; N-terminus assumed
SMILES: CC[C@H](C)[C@H](NC(=O)[C@H](C)NC(=O)CNC(=O)[C@H](Cc1ccccc1)NC(=O)[C@H](CC(N)=O)NC(=O)[C@@H]1CCCN1C(=O)[C@H](CO)NC(=O)[C@H](CO)NC(=O)[C@H](Cc1c[nH]cn1)NC(=O)[C@H](CCCNC(=N)N)NC(=O)[C@H](CC(C)C)NC(=O)[C@H](Cc1ccccc1)NC(=O)[C@H](CC(N)=O)NC(=O)[C@H](C)NC(=O)[C@H](CC(C)C)NC(=O)[C@H](CCCNC(=N)N)NC(=O)[C@H](CCC(N)=O)NC(=O)[C@@H](NC(=O)[C@H](C)NC(=O)[C@@H]1CSSC[C@H](NC(=O)[C@@H](N)CCCCNC(=O)COCCOCCNC(=O)CCCCCCCCCCCCCCCCCCC(=O)O)C(=O)N[C@@H](CC(N)=O)C(=O)N[C@@H]([C@@H](C)O)C(=O)N[C@@H](C)C(=O)N[C@@H]([C@@H](C)O)C(=O)N1)[C@@H](C)O)C(=O)N1CCC[C@H]1C(=O)N[C@@H](CO)C(=O)N[C@@H](CO)C(=O)N[C@H](C(=O)N[C@@H](CC(N)=O)C(=O)N[C@H](C(=O)NCC(=O)N[C@@H](Cc1c[nH]cn1)C(=O)N[C@@H](CC(N)=O)C(=O)N[C@H](C(=O)N[C@@H](Cc1ccc(O)cc1)C(N)=O)[C@@H](C)O)C(C)C)[C@@H](C)O
notes: also called compound 91

IC50 [2]: 112 nM
IC50 [3]: 0.365 nM
B3: N^ε1-[(4S)-4-carboxy-4-[[(4S)-4-carboxy-4-(19-carboxynonadecanoylamino)butanoyl]amino]butanoyl]-[D-Asp14,Arg17,Pro21,Pro27,Arg35]-h-amylin (peptide)
peptide: K([γGlu-γGlu-C20 diacid])CNTATCATQRLA[dD]FLRHSSPNFGAIPSSTNVGSRTY-NH2
modifications: disulfide 2-7; N-terminus assumed
SMILES: CC[C@H](C)[C@H](NC(=O)[C@H](C)NC(=O)CNC(=O)[C@H](Cc1ccccc1)NC(=O)[C@H](CC(N)=O)NC(=O)[C@@H]1CCCN1C(=O)[C@H](CO)NC(=O)[C@H](CO)NC(=O)[C@H](Cc1c[nH]cn1)NC(=O)[C@H](CCCNC(=N)N)NC(=O)[C@H](CC(C)C)NC(=O)[C@H](Cc1ccccc1)NC(=O)[C@@H](CC(=O)O)NC(=O)[C@H](C)NC(=O)[C@H](CC(C)C)NC(=O)[C@H](CCCNC(=N)N)NC(=O)[C@H](CCC(N)=O)NC(=O)[C@@H](NC(=O)[C@H](C)NC(=O)[C@@H]1CSSC[C@H](NC(=O)[C@@H](N)CCCCNC(=O)CC[C@H](NC(=O)CC[C@H](NC(=O)CCCCCCCCCCCCCCCCCCC(=O)O)C(=O)O)C(=O)O)C(=O)N[C@@H](CC(N)=O)C(=O)N[C@@H]([C@@H](C)O)C(=O)N[C@@H](C)C(=O)N[C@@H]([C@@H](C)O)C(=O)N1)[C@@H](C)O)C(=O)N1CCC[C@H]1C(=O)N[C@@H](CO)C(=O)N[C@@H](CO)C(=O)N[C@H](C(=O)N[C@@H](CC(N)=O)C(=O)N[C@H](C(=O)NCC(=O)N[C@@H](CO)C(=O)N[C@@H](CCCNC(=N)N)C(=O)N[C@H](C(=O)N[C@@H](Cc1ccc(O)cc1)C(N)=O)[C@@H](C)O)C(C)C)[C@@H](C)O
